Publication doi:10.1101/2024.08.12.607649 (bioRxiv, 2024)

Target: T1, Msn5_(βC-helix-tail) (residues 1179-1224 removed) (S. cerevisiae, UniProt P52918 1-1178)
T1 sequence (looked up): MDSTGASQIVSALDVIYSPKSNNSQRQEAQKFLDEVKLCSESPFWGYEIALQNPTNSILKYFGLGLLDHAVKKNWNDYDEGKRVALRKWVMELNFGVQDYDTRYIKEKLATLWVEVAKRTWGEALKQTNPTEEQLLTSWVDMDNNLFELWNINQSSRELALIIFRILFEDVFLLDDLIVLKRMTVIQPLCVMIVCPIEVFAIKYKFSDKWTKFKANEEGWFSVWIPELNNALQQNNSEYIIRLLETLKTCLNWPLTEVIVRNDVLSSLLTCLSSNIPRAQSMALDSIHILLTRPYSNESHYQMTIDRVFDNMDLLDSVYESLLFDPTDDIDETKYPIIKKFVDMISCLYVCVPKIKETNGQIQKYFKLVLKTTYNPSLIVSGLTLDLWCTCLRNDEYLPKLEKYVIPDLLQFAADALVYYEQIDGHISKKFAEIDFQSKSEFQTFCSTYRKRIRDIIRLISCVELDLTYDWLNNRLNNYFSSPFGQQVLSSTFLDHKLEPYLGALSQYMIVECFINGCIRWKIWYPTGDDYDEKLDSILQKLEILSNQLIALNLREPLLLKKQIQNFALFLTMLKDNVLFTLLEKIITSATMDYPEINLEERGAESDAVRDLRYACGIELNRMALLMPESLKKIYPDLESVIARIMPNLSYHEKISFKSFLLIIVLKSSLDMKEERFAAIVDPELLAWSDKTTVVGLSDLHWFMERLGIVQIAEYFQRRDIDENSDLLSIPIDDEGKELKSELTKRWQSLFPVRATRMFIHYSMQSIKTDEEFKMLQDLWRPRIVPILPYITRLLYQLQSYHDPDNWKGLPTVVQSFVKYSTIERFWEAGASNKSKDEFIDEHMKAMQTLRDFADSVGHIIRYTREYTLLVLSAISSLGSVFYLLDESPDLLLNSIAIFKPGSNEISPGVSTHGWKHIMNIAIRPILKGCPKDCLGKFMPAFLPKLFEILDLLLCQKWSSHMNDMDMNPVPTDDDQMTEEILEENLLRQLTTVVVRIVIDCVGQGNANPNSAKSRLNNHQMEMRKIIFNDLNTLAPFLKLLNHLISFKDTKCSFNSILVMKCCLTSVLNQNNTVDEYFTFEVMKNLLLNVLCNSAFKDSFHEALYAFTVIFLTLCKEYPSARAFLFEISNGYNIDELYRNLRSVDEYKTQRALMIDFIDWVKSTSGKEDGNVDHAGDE
Test: pull-down

- binding result: binds
B1: GST-pPho4_(1-200) (domain or fragment, S. cerevisiae, UniProt P07270 1-200, looked up)
chain: MGRTTSEGIHGFVDDLEPKSSILDKVGDFITVNTKRHDGREDFNEQNDELNSQENHNSSENGNENENEQDSLALDDLDRAFELVEGMDMDWMMPSHAHHSPATTATIKPRLLYSPLIHTQSAVPVTISPNLVATATSTTSANKVTKNKSNSSPYLNKRRGKPGPDSATSLFELPDSVIPTPKPKPKPKQYPKVILPSNST
modifications: phosphoserine at 100, 114, 128, 152 (in vitro phosphorylation by Pho80-Pho85)
